Test results: publication PMC12390655 (Viruses, 2025)

Columns and labels:
[1] = target: eVP24–KPNA5-ΔIBB complex (human | Ebola virus) (UniProt Q05322); assay: native MS
[2] = target: bipartite NLS (bpNLS) from the nucleoplasmin; assay: native MS
[3] = target: monopartite NLS peptide (mpNLS) from the SV40 large T antigen (SV40); assay: fluorescence polarisation
[4] = target: bipartite NLS (bpNLS) from the nucleoplasmin; assay: fluorescence polarisation

eVP24–KPNA5-ΔIBB complex (from UniProt Q05322 11-237)
stoichiometry N [1]: 2 | stoichiometry N [2]: 1 | Kd [3]: 5200 nM | Kd [4]: 210 nM
